# Laboratory results published in the supplement of paper PMC7877785.
# ± gives the uncertainty stated by the source.
# Experiment: self-splicing fitness, log relative to wild type (ln ratio); higher = more splicing; Tetrahymena group I intron in knt gene, E. coli kanamycin selection, DiMSum; sequences stand for … in CUCUCU…GGAGGGAAAAGUUAUCAGGCAUGCACCUGGUAGCUAGUCUUUAAACCAAUAGAUUGCAUCGGUUUAAAAGGCAAGACCGUCAAAUUGCGGGAAAGGGGUCAACAGCCGUUCAGUACCAAGUCUCAGGGGAAACUUUGAGAUGGCCUUGCAAAGGGUAUGGUAAUAAGCUGACGGACAUGGUCCUAACCACGCAGCCAAGUCCUAAGUCAACAGAUCUUCUGUUGAUAUGGAUGCAGUUCACAGACUAAAUGUCGGUCGGGGAAGAUGUAUUCUUCUCAUAAGAUAUAGUCGGACCUCUCCUUAAUGGGAGCUAGCGGAUGAAGUGAUGCAACACUGGAGCCGCUGGGAACUAAUUUGUAUGCGAAAGUAUAUUGAUUAGUUUUGGAGUACUCGUGGUCG
# Procedure, shortened: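 Library with all eight P1ex-region intron nucleotides randomised, intron inside the knt kanamycin-resistance gene on pET-22b(+), in E. coli BL21(DE3). Cells grew overnight at 37°C or 30°C on LB agar with or without 25 μg/mL kanamycin (plus 100 μg/mL carbenicillin, 50 μM IPTG, 0.2% rhamnose), in six replicate transformations. Pooled colonies were amplicon-sequenced on Illumina HiSeq 2500. DiMSum fitness is the error-weighted combination of wild-type-normalised replicate fold changes, kanamycin versus none.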
Sequence,self-splicing fitness (ln) (30 °C),self-splicing fitness (ln) (37 °C)
CCCUAGCAAUAUUACGGGGG,-3.85 ± 0.24,-3.36 ± 0.3
GUCUAGCAAUAUUACGUACC,-0.591 ± 0.29,-0.721 ± 0.3
ACUAAGCAAUAUUACGUUUG,-3.62 ± 0.18,-2.22 ± 0.17
GACAAGCAAUAUUACGCAGU,-3.47 ± 0.35,-1.85 ± 0.22
AGCAAGCAAUAUUACGGCAC,-0.889 ± 0.08,-0.371 ± 0.11
CCAGAGCAAUAUUACGUGUA,-3.22 ± 0.21,-2.08 ± 0.23
UCCCAGCAAUAUUACGCACU,-1.64 ± 0.12,-1.04 ± 0.14
GUAAAGCAAUAUUACGAUUG,-2.98 ± 0.18,-0.942 ± 0.22
GCCUAGCAAUAUUACGCGCA,-1.21 ± 0.12,-0.303 ± 0.11
ACGGAGCAAUAUUACGGUGG,-3.07 ± 0.18,-2.22 ± 0.26
GGGGAGCAAUAUUACGCACU,-3.29 ± 0.36,–
AGCUAGCAAUAUUACGCCGG,-2.94 ± 0.2,-1.85 ± 0.34
GAGCAGCAAUAUUACGAAAU,-2.45 ± 0.21,-1.84 ± 0.21
CGAGAGCAAUAUUACGUAAG,-2.59 ± 0.13,-1.26 ± 0.15
CAACAGCAAUAUUACGUCCA,-1.75 ± 0.11,-1.35 ± 0.13
GUUGAGCAAUAUUACGGAUU,-2.6 ± 0.34,-1.56 ± 0.21
AUCAAGCAAUAUUACGACGG,-3.8 ± 0.14,-2.67 ± 0.15
GGCUAGCAAUAUUACGUAAU,-0.265 ± 0.1,0.283 ± 0.12
GGCGAGCAAUAUUACGCAGU,-1.29 ± 0.43,-0.76 ± 0.39
CCCCAGCAAUAUUACGUCGA,-4.09 ± 0.23,-2.27 ± 0.15
CGUUAGCAAUAUUACGCAUC,–,-2.72 ± 0.41
UGAAAGCAAUAUUACGGUUG,-1.29 ± 0.079,-0.865 ± 0.091
CGCGAGCAAUAUUACGACGU,-2.39 ± 0.33,-1.08 ± 0.21
GCAGAGCAAUAUUACGGCUA,-1.53 ± 0.14,-0.385 ± 0.11
CCCGAGCAAUAUUACGGAUU,-4.16 ± 0.18,-2.55 ± 0.17

Sequence,self-splicing fitness (ln) (30 °C),self-splicing fitness (ln) (37 °C)
UGCCAGCAAUAUUACGAUCG,-0.0468 ± 0.067,0.0388 ± 0.079
AAACAGCAAUAUUACGGUGA,-0.283 ± 0.093,-0.496 ± 0.12
GAAGAGCAAUAUUACGUGAA,-2.94 ± 0.15,-2.03 ± 0.17
GAUAAGCAAUAUUACGGAAA,-2.35 ± 0.41,-1.67 ± 0.29
CGGGAGCAAUAUUACGAUCA,–,-1.75 ± 0.43
AAGAAGCAAUAUUACGGGCU,-1.35 ± 0.13,-2.09 ± 0.2
AAUAAGCAAUAUUACGCAGA,-3.73 ± 0.3,-2.38 ± 0.23
GAUUAGCAAUAUUACGGGUG,-1.52 ± 0.097,-0.58 ± 0.12
GAGUAGCAAUAUUACGGAUG,-1.42 ± 0.17,–
CCCAAGCAAUAUUACGGGAA,-2.75 ± 0.17,-1.96 ± 0.16
UUCUAGCAAUAUUACGGCGU,-1.72 ± 0.13,-1.2 ± 0.14
GGGGAGCAAUAUUACGAAUU,-1.24 ± 0.19,-0.992 ± 0.25
UCUAAGCAAUAUUACGUCAC,-2.47 ± 0.24,0.446 ± 0.28
UGCUAGCAAUAUUACGACAG,-0.698 ± 0.059,0.337 ± 0.093
UGACAGCAAUAUUACGGGCC,-3.34 ± 0.22,-2.23 ± 0.27
ACCAAGCAAUAUUACGUAUA,-3.38 ± 0.16,-2.36 ± 0.12
AGGUAGCAAUAUUACGGCCC,-2.77 ± 0.044,-1.91 ± 0.058
GUCCAGCAAUAUUACGAUCG,-1.8 ± 0.14,-1.54 ± 0.14
ACUCAGCAAUAUUACGUGAU,-1 ± 0.064,-0.627 ± 0.078
CAUGAGCAAUAUUACGCUAU,-3.46 ± 0.3,-1.99 ± 0.21
UAGUAGCAAUAUUACGUGUG,-2.02 ± 0.11,-1.23 ± 0.13
GUUAAGCAAUAUUACGUUGG,-2.45 ± 0.14,-1.19 ± 0.15
UCAAAGCAAUAUUACGUUGC,-3.48 ± 0.19,-3.23 ± 0.26
AGUUAGCAAUAUUACGGUGU,-3.11 ± 0.21,-1.73 ± 0.21
CACUAGCAAUAUUACGACCA,-1.18 ± 0.14,-1.69 ± 0.21

Sequence,self-splicing fitness (ln) (30 °C),self-splicing fitness (ln) (37 °C)
AAAGAGCAAUAUUACGAUCU,-1.42 ± 0.12,-0.518 ± 0.12
CUAAAGCAAUAUUACGAGGU,-4.41 ± 0.24,-2.81 ± 0.25
ACCUAGCAAUAUUACGCGGA,-1.04 ± 0.085,-0.0825 ± 0.086
CUACAGCAAUAUUACGUCAC,-3.35 ± 0.36,-2.13 ± 0.18
GUAAAGCAAUAUUACGCUCG,-0.0287 ± 0.1,0.709 ± 0.13
CAAGAGCAAUAUUACGGUCG,-0.431 ± 0.05,-0.728 ± 0.065
CCGGAGCAAUAUUACGGGGU,-3.59 ± 0.2,-2.93 ± 0.26
CACCAGCAAUAUUACGUAAA,-3.49 ± 0.15,-1.6 ± 0.11
CAGUAGCAAUAUUACGACUA,0.402 ± 0.089,0.675 ± 0.11
GAGGAGCAAUAUUACGUAGG,-2.42 ± 0.42,-1.27 ± 0.23
CACUAGCAAUAUUACGUGAG,-3.33 ± 0.14,-2.91 ± 0.23
UGCCAGCAAUAUUACGCUUG,-2.85 ± 0.16,-2.33 ± 0.19
CUGCAGCAAUAUUACGGGAG,-2.74 ± 0.11,-1.79 ± 0.12
CAUCAGCAAUAUUACGAUGC,-4.35 ± 0.36,-2.76 ± 0.33
CCACAGCAAUAUUACGCCAG,-2.56 ± 0.15,-1.07 ± 0.14
UCUGAGCAAUAUUACGCCGA,-1.16 ± 0.21,0.184 ± 0.22
UACUAGCAAUAUUACGUCGU,-2.15 ± 0.16,-1.96 ± 0.18
GGGCAGCAAUAUUACGAACG,-1.18 ± 0.12,0.475 ± 0.17
UGUUAGCAAUAUUACGAGCC,-2.39 ± 0.22,-0.493 ± 0.17
CUCCAGCAAUAUUACGUAGG,-2.92 ± 0.11,-1.9 ± 0.15
GACCAGCAAUAUUACGUAUC,-0.803 ± 0.1,-0.659 ± 0.11
UUUUAGCAAUAUUACGCUGU,-3.26 ± 0.34,-1.98 ± 0.33
AAUUAGCAAUAUUACGCCGG,-2.62 ± 0.34,-0.87 ± 0.4
AGCUAGCAAUAUUACGAGCC,-3.51 ± 0.32,-2.5 ± 0.49
CGAUAGCAAUAUUACGGCAG,-0.958 ± 0.087,-0.344 ± 0.12

Sequence,self-splicing fitness (ln) (30 °C),self-splicing fitness (ln) (37 °C)
CGUCAGCAAUAUUACGCGGA,–,-3.17 ± 0.32
AUUAAGCAAUAUUACGUGGG,-3.45 ± 0.17,-2.44 ± 0.16
GACGAGCAAUAUUACGGAAA,-2.69 ± 0.3,-1.47 ± 0.29
AGCAAGCAAUAUUACGACCG,-0.988 ± 0.069,-0.512 ± 0.097
GUCUAGCAAUAUUACGAGUU,-2.13 ± 0.12,-1.32 ± 0.1
GCCGAGCAAUAUUACGUGCG,-2.17 ± 0.11,-1.28 ± 0.098
GGCGAGCAAUAUUACGUAUU,-2.29 ± 0.14,-0.757 ± 0.12
GGGGAGCAAUAUUACGGACG,-2.73 ± 0.32,-1.21 ± 0.28
GCUUAGCAAUAUUACGUUCU,-1.03 ± 0.095,0.0827 ± 0.1
GUCUAGCAAUAUUACGUGUU,-1.61 ± 0.092,-0.352 ± 0.093
CCCAAGCAAUAUUACGAAAG,-3.49 ± 0.17,-3.39 ± 0.31
GGCUAGCAAUAUUACGAGGA,-1.17 ± 0.17,-1.47 ± 0.14
UGGUAGCAAUAUUACGUCAC,–,-1.37 ± 0.45
ACGAAGCAAUAUUACGUACA,-2.13 ± 0.13,-1.06 ± 0.12
GGAAAGCAAUAUUACGACAG,-2.98 ± 0.14,-2.17 ± 0.22
CAAGAGCAAUAUUACGCUGG,-3.84 ± 0.3,-1.99 ± 0.19
UUGCAGCAAUAUUACGCGGU,-3.63 ± 0.35,–
GGACAGCAAUAUUACGUAGU,-1.61 ± 0.059,-1.15 ± 0.085
UCCAAGCAAUAUUACGAAUG,-4.26 ± 0.21,-2.95 ± 0.2
UUUGAGCAAUAUUACGCGAG,-1.42 ± 0.15,-0.997 ± 0.2
AGGAAGCAAUAUUACGCACU,-0.845 ± 0.22,-1.35 ± 0.29
UGUCAGCAAUAUUACGGAGG,-1.68 ± 0.072,-0.948 ± 0.097
